Measured values taken from publication doi:10.1101/2023.06.01.543357, “Novel histones and histone variant families in prokaryotes” (bioRxiv, 2023).

Molecular target: the molecule itself
Test: crystal structure; HTkC at 4.0 mg/mL in 50 mM Tris-HCl pH 7.0, 100 mM KCl, 10% glycerol; sitting drop vapour diffusion, reservoir 0.01 M trisodium citrate, 33% (w/v) PEG 6000; space group P212121, 1.84 Å; four monomers in the asymmetric unit; dimers to tetramer

B1: face-to-face (FtF) histone from Thermococcus kodakarensis (HTkC) (natural protein)
chain: MAEMLVKSKVKEFVKSVDPEMRVSPEFYDALEAEVKALVEKAIKRAQAEGRKTLYARHV
notes: Face-to-face histone HTkC of Thermococcus kodakarensis, product of gene TK1040 (synthesised gene cloned into pET30b, plasmid pRD503); purification was by heat, heparin and size exclusion; The crystal holds four monomers (two dimers) in the asymmetric unit, forming a torus-shaped tetramer; also called FtF histone HTkC; TK1040; source: E. coli BL21(DE3)pLysS, purified (heat step at 70 °C, HiTrap …)
stoichiometry N: 4
